One experiment deals with T1, ErbB3 (UniProt P21860 20-643, limits assumed, biotinylated).
T1 construct: ELISA antigen
Nature of the experiment: direct bind ELISA, C-term VD. (In general: In an ELISA, binding on a coated surface is turned into a signal by an enzyme label.)

A further experiment concerns the target T2, EGFR (UniProt P00533 25-645, limits assumed, biotinylated).
T2 construct: ELISA antigen; construct not described
Nature of the experiment: direct bind ELISA, N-term VD.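 Further: antibody or DVD-Ig preparations bound to immobilized target antigen on ELISA plates, 1 h at room temperature, TMB detection read as absorbance at 450 nm.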

B1: DVD769 (bispecific antibody)
VH: QVQLQESGPGLVKPSQTLSLTCTVSGYSISSDFAWNWIRQPPGKGLEWMGYISYSGNTRYQPSLKSRITISRDTSKNQFFLKLNSVTAADTATYYCVTAGRGFPYWGQGTLVTVSSASTKGPSVFPLAPQVQLQQWGAGLLKPSETLSLTCAVYGGSFSGYYWSWIRQPPGKGLEWIGEINHSGSTNYNPSLKSRVTISVETSKNQFSLKLSSVTAADTAVYYCARDKWTWYFDLWGRGTLVTVSS
VL: DIQMTQSPSSMSVSVGDRVTITCHSSQDINSNIGWLQQKPGKSFKGLIYHGTNLDDGVPSRFSGSGSGTDYTLTISSLQPEDFATYYCVQYAQFPWTFGGGTKLEIKRTVAAPSVFIFPPDIEMTQSPDSLAVSLGERATINCRSSQSVLYSSSNRNYLAWYQQNPGQPPKLLIYWASTRESGVPDRFSGSGSGTDFTLTISSLQAEDVAVYYCQQYYSTPRTFGQGTKVEIKR
notes: DVD-Ig; HC L, LC L; variable parts only
For the molecule B1, the EC50 (usually the concentration at which the effect is half-maximal) was found to be 8.23 nM with ErbB3 and 3.59 nM with EGFR.

B2: DVD799 (bispecific antibody)
VH: QVQLQESGPGLVKPSQTLSLTCTVSGYSISSDFAWNWIRQPPGKGLEWMGYISYSGNTRYQPSLKSRITISRDTSKNQFFLKLNSVTAADTATYYCVTAGRGFPYWGQGTLVTVSSASTKGPSVFPLAPQVQLQQWGAGLLKPSETLSLTCAVYGGSFSGYYWSWIRQPPGKGLEWIGEINHSGSTNYNPSLKSRVTISVETSKNQFSLKLSSVTAADTAVYYCARDKWTWYFDLWGRGTLVTVSS
VL: DIQMTQSPSSMSVSVGDRVTITCHSSQDINSNIGWLQQKPGKSFKGLIYHGTNLDDGVPSRFSGSGSGTDYTLTISSLQPEDFATYYCVQYAQFPWTFGGGTKLEIKRTVAAPDIEMTQSPDSLAVSLGERATINCRSSQSVLYSSSNRNYLAWYQQNPGQPPKLLIYWASTRESGVPDRFSGSGSGTDFTLTISSLQAEDVAVYYCQQYYSTPRTFGQGTKVEIKR
notes: DVD-Ig; HC L, LC S; variable parts only
As for B2, the EC50 in the experiment with ErbB3 stood at 20 nM; with EGFR, 5.76 nM.

B3: DVD829 (bispecific antibody)
VH: QVQLQESGPGLVKPSQTLSLTCTVSGYSISSDFAWNWIRQPPGKGLEWMGYISYSGNTRYQPSLKSRITISRDTSKNQFFLKLNSVTAADTATYYCVTAGRGFPYWGQGTLVTVSSASTKGPQVQLQQWGAGLLKPSETLSLTCAVYGGSFSGYYWSWIRQPPGKGLEWIGEINHSGSTNYNPSLKSRVTISVETSKNQFSLKLSSVTAADTAVYYCARDKWTWYFDLWGRGTLVTVSS
VL: DIQMTQSPSSMSVSVGDRVTITCHSSQDINSNIGWLQQKPGKSFKGLIYHGTNLDDGVPSRFSGSGSGTDYTLTISSLQPEDFATYYCVQYAQFPWTFGGGTKLEIKRTVAAPSVFIFPPDIEMTQSPDSLAVSLGERATINCRSSQSVLYSSSNRNYLAWYQQNPGQPPKLLIYWASTRESGVPDRFSGSGSGTDFTLTISSLQAEDVAVYYCQQYYSTPRTFGQGTKVEIKR
notes: DVD-Ig; HC S, LC L; variable parts only
With B3, the half-maximal effective concentration (EC50) with ErbB3 amounted to 41.4 nM; in the experiment with EGFR it was 3.81 nM.

B4: DVD771 (bispecific antibody)
VH: QVQLQESGPGLVKPSQTLSLTCTVSGYSISSDFAWNWIRQPPGKGLEWMGYISYSGNTRYQPSLKSRITISRDTSKNQFFLKLNSVTAADTATYYCVTAGRGFPYWGQGTLVTVSSASTKGPSVFPLAPEVQLVESGGGLVQPGGSLRLSCAASGFTFSIYSMNWVRQAPGKGLEWVSYISSSSSTIYYADSVKGRFTISRDNAKNSLYLQMNSLRDEDTAVYYCARDRGDFDAFDIWGQGTMVTVSS
VL: DIQMTQSPSSMSVSVGDRVTITCHSSQDINSNIGWLQQKPGKSFKGLIYHGTNLDDGVPSRFSGSGSGTDYTLTISSLQPEDFATYYCVQYAQFPWTFGGGTKLEIKRTVAAPSVFIFPPDIQMTQSPSSLSASVGDRVTITCQASQDITNYLNWYQQKPGKAPKLLIYDASNLETGVPSRFSGSGSGTDFTFTISSLQPEDIATYNCQQCENFPITFGQGTRLEIKR
notes: as for B1
Regarding B4, the 50% effective concentration (EC50) with ErbB3 amounted to 1.38 nM; with EGFR, 4.43 nM.

B5: DVD801 (bispecific antibody)
VH: QVQLQESGPGLVKPSQTLSLTCTVSGYSISSDFAWNWIRQPPGKGLEWMGYISYSGNTRYQPSLKSRITISRDTSKNQFFLKLNSVTAADTATYYCVTAGRGFPYWGQGTLVTVSSASTKGPSVFPLAPEVQLVESGGGLVQPGGSLRLSCAASGFTFSIYSMNWVRQAPGKGLEWVSYISSSSSTIYYADSVKGRFTISRDNAKNSLYLQMNSLRDEDTAVYYCARDRGDFDAFDIWGQGTMVTVSS
VL: DIQMTQSPSSMSVSVGDRVTITCHSSQDINSNIGWLQQKPGKSFKGLIYHGTNLDDGVPSRFSGSGSGTDYTLTISSLQPEDFATYYCVQYAQFPWTFGGGTKLEIKRTVAAPDIQMTQSPSSLSASVGDRVTITCQASQDITNYLNWYQQKPGKAPKLLIYDASNLETGVPSRFSGSGSGTDFTFTISSLQPEDIATYNCQQCENFPITFGQGTRLEIKR
notes: as for B2
Turning to B5, the 50% effective concentration (EC50) in the experiment with ErbB3 came out at 3.28 nM; with EGFR, 3.91 nM.

B6: DVD831 (bispecific antibody)
VH: QVQLQESGPGLVKPSQTLSLTCTVSGYSISSDFAWNWIRQPPGKGLEWMGYISYSGNTRYQPSLKSRITISRDTSKNQFFLKLNSVTAADTATYYCVTAGRGFPYWGQGTLVTVSSASTKGPEVQLVESGGGLVQPGGSLRLSCAASGFTFSIYSMNWVRQAPGKGLEWVSYISSSSSTIYYADSVKGRFTISRDNAKNSLYLQMNSLRDEDTAVYYCARDRGDFDAFDIWGQGTMVTVSS
VL: DIQMTQSPSSMSVSVGDRVTITCHSSQDINSNIGWLQQKPGKSFKGLIYHGTNLDDGVPSRFSGSGSGTDYTLTISSLQPEDFATYYCVQYAQFPWTFGGGTKLEIKRTVAAPSVFIFPPDIQMTQSPSSLSASVGDRVTITCQASQDITNYLNWYQQKPGKAPKLLIYDASNLETGVPSRFSGSGSGTDFTFTISSLQPEDIATYNCQQCENFPITFGQGTRLEIKR
notes: as for B3
As to B6, the EC50 in the experiment with ErbB3 came out at 1.42 nM; with EGFR, 4.6 nM.

B7: DVD327 (bispecific antibody)
VH: QVQLQESGPGLVKPSQTLSLTCTVSGYSISSDFAWNWIRQPPGKGLEWMGYISYSGNTRYQPSLKSRITISRDTSKNQFFLKLNSVTAADTATYYCVTAGRGFPYWGQGTLVTVSSASTKGPQVQLQQWGAGLLKPSETLSLTCAVYGGSFSGYYWSWIRQPPGKGLEWIGEINHSGSTNYNPSLKSRVTISVETSKNQFSLKLSSVTAADTAVYYCARDKWTWYFDLWGRGTLVTVSS
VL: DIQMTQSPSSMSVSVGDRVTITCHSSQDINSNIGWLQQKPGKSFKGLIYHGTNLDDGVPSRFSGSGSGTDYTLTISSLQPEDFATYYCVQYAQFPWTFGGGTKLEIKRTVAAPDIEMTQSPDSLAVSLGERATINCRSSQSVLYSSSNRNYLAWYQQNPGQPPKLLIYWASTRESGVPDRFSGSGSGTDFTLTISSLQAEDVAVYYCQQYYSTPRTFGQGTKVEIKR
notes: DVD-Ig; HC S, LC S; variable parts only
B7: the half-maximal effective concentration (EC50) with ErbB3 was 485 nM; with EGFR, 3.98 nM.

B8: DVD329 (bispecific antibody)
VH: QVQLQESGPGLVKPSQTLSLTCTVSGYSISSDFAWNWIRQPPGKGLEWMGYISYSGNTRYQPSLKSRITISRDTSKNQFFLKLNSVTAADTATYYCVTAGRGFPYWGQGTLVTVSSASTKGPEVQLVESGGGLVQPGGSLRLSCAASGFTFSIYSMNWVRQAPGKGLEWVSYISSSSSTIYYADSVKGRFTISRDNAKNSLYLQMNSLRDEDTAVYYCARDRGDFDAFDIWGQGTMVTVSS
VL: DIQMTQSPSSMSVSVGDRVTITCHSSQDINSNIGWLQQKPGKSFKGLIYHGTNLDDGVPSRFSGSGSGTDYTLTISSLQPEDFATYYCVQYAQFPWTFGGGTKLEIKRTVAAPDIQMTQSPSSLSASVGDRVTITCQASQDITNYLNWYQQKPGKAPKLLIYDASNLETGVPSRFSGSGSGTDFTFTISSLQPEDIATYNCQQCENFPITFGQGTRLEIKR
notes: as for B7
B8: the half-maximal effective concentration (EC50) was determined as 481 nM with ErbB3 and 3.82 nM with EGFR.

B9: DVD787 (bispecific antibody)
VH: QVQLQESGPGLVKPSQTLSLTCTVSGYSISSDFAWNWIRQPPGKGLEWMGYISYSGNTRYQPSLKSRITISRDTSKNQFFLKLNSVTAADTATYYCVTAGRGFPYWGQGTLVTVSSASTKGPSVFPLAPEVQLLESGGGLVQPGGSLRLSCAASGFTFSHYVMAWVRQAPGKGLEWVSSISSSGGWTLYADSVKGRFTISRDNSKNTLYLQMNSLRAEDTAVYYCTRGLKMATIFDYWGQGTLVTVSS
VL: DIQMTQSPSSMSVSVGDRVTITCHSSQDINSNIGWLQQKPGKSFKGLIYHGTNLDDGVPSRFSGSGSGTDYTLTISSLQPEDFATYYCVQYAQFPWTFGGGTKLEIKRTVAAPSVFIFPPQSALTQPASVSGSPGQSITISCTGTSSDVGSYNVVSWYQQHPGKAPKLIIYEVSQRPSGVSNRFSGSKSGNTASLTISGLQTEDEADYYCCSYAGSSIFVIFGGGTKVTVLG
notes: as for B1
For the molecule B9, the results for the EC50 with ErbB3 and in the experiment with EGFR were 14.4 nM and 3.78 nM, respectively.

B10: DVD847 (bispecific antibody)
VH: QVQLQESGPGLVKPSQTLSLTCTVSGYSISSDFAWNWIRQPPGKGLEWMGYISYSGNTRYQPSLKSRITISRDTSKNQFFLKLNSVTAADTATYYCVTAGRGFPYWGQGTLVTVSSASTKGPEVQLLESGGGLVQPGGSLRLSCAASGFTFSHYVMAWVRQAPGKGLEWVSSISSSGGWTLYADSVKGRFTISRDNSKNTLYLQMNSLRAEDTAVYYCTRGLKMATIFDYWGQGTLVTVSS
VL: DIQMTQSPSSMSVSVGDRVTITCHSSQDINSNIGWLQQKPGKSFKGLIYHGTNLDDGVPSRFSGSGSGTDYTLTISSLQPEDFATYYCVQYAQFPWTFGGGTKLEIKRTVAAPSVFIFPPQSALTQPASVSGSPGQSITISCTGTSSDVGSYNVVSWYQQHPGKAPKLIIYEVSQRPSGVSNRFSGSKSGNTASLTISGLQTEDEADYYCCSYAGSSIFVIFGGGTKVTVLG
notes: as for B3
Regarding B10, the results for the EC50 in the experiment with ErbB3 and with EGFR were 12.9 nM and 2.92 nM, respectively.

B11: DVD817 (bispecific antibody)
VH: QVQLQESGPGLVKPSQTLSLTCTVSGYSISSDFAWNWIRQPPGKGLEWMGYISYSGNTRYQPSLKSRITISRDTSKNQFFLKLNSVTAADTATYYCVTAGRGFPYWGQGTLVTVSSASTKGPSVFPLAPEVQLLESGGGLVQPGGSLRLSCAASGFTFSHYVMAWVRQAPGKGLEWVSSISSSGGWTLYADSVKGRFTISRDNSKNTLYLQMNSLRAEDTAVYYCTRGLKMATIFDYWGQGTLVTVSS
VL: DIQMTQSPSSMSVSVGDRVTITCHSSQDINSNIGWLQQKPGKSFKGLIYHGTNLDDGVPSRFSGSGSGTDYTLTISSLQPEDFATYYCVQYAQFPWTFGGGTKLEIKRTVAAPQSALTQPASVSGSPGQSITISCTGTSSDVGSYNVVSWYQQHPGKAPKLIIYEVSQRPSGVSNRFSGSKSGNTASLTISGLQTEDEADYYCCSYAGSSIFVIFGGGTKVTVLG
notes: as for B2
For the molecule B11, the EC50 with ErbB3 was 18.8 nM; with EGFR, 5.33 nM.

The values above are taken from patent US20110263827A1 (AbbVie / Abbott, published 2011).
